This is an account of results in patent US20200247886A1 (ZLIP, published 2020).

Numbering of substitutions follows the chain as printed. A value given as a limit tells only on which side of the number the result lay.

For experiment [1], the target named is T1, human CD47 expressed on cells (CD47 expressing CHO cells, Jurkat, HL60, DLD1, Raji) (human, UniProt Q08722 19-292).
T1 construct: also called CHO-CD47; IAP
The experiment in a line: flow cytometry on HL60 cells, Fab, frequency. Background: A flow cytometer gives signals particle by particle.

The target of experiment [2] is T1, human CD47 expressed on cells (CD47 …). The experiment in a line: flow cytometry on DLD1 cells, Fab, frequency.
Experiment [3] has the same target. The experiment is described as follows: EC50 (nM) as grade, flow cytometry, Fab on DLD1 cells; legend +++: <5 nM.
Experiment [4] shares this target. The experiment is described as follows: EC50 (nM) as grade, flow cytometry, Fab on HL60 cells; legend ++: >1 nM and <7 nM.
For experiment [5], the target named is T2, His-tagged CD47 (Homo sapiens (Human), UniProt Q08722 19-139, limits assumed).
T2 construct: not shown: His tag
The experiment is described as follows: IC50 (nM) MFI as grade, blocking His-tagged CD47 binding to SIRPα-CHO cells; legend +++: <2 nM.

The target in experiment [6] is T3, biotin labelled polyhistidine tagged CD47 protein (Novoprotein, Cat#321) (human, UniProt Q08722 19-139, biotin labelled (site not stated)).
T3 construct: Bought protein; also called biotinylated CD47; biotinylated human CD47 protein; not shown: polyhistidine tag
The experiment is described as follows: IC50 (nM) as grade, Fab blocking biotinylated CD47 binding to SIRPα-CHO cells; legend +++: <10 nM.

Experiment [7] concerns the target T2, His-tagged CD47. The experiment is described as follows: IC50 (nM) Frequency as grade, blocking His-tagged CD47 binding to SIRPα-CHO cells; legend ++: >2 nM and <2.7 nM.
In experiment [8] the target is T3, biotin labelled polyhistidine tagged …. The experiment in a line: flow cytometry blocking assay: biotinylated CD47 with Fab on SIRPα-expressing CHO cells (SIRPα is the blocked ligand), frequency.
Experiment [9] addresses T2, His-tagged CD47. The experiment is described as follows: flow cytometry blocking assay: His-tagged CD47 with Fab on SIRPα-expressing CHO cells (SIRPα is the blocked ligand), anti-His-APC, MFI.
Experiment [10] concerns the target T2, His-tagged CD47. The experiment is described as follows: flow cytometry blocking assay: His-tagged CD47 with Fab on SIRPα-expressing CHO cells (SIRPα is the blocked ligand), anti-His-APC, frequency.
Experiment [11] deals with T1, human CD47 expressed on cells (CD47 …). The experiment is described as follows: EC50 (nM) as grade, flow cytometry, Fab on HL60 cells; legend +: >7 nM.
Experiment [12] concerns the target T3, biotin labelled polyhistidine tagged …. The experiment in a line: IC50 (nM) as grade, Fab blocking biotinylated CD47 binding to SIRPα-CHO cells; legend ++: >10 nM and <65 nM.

As a reminder, the EC50 (read off the curve) is the midpoint of the concentration-response curve. Low values mean higher potency in that assay, high ones lower potency in that assay. In general, EC50 refers to the concentration that produces a half-maximal response. Usually IC50 stands for the point on the concentration scale where inhibition reaches its midpoint. Read a high IC50 as lower potency.

B1: ABU9 (Fab) (Fab, V domains shown)
VH: EVQLQQSGPELVKPGASVKLSCKASGFTFTNYYIHWVKQRPGQGPEWIGWIYLGSGNTKYNEKFKGKATLTADTSSSTAYLQLSTLISEDSAVYYCARYDYDLYLDSWGQGTTVTVSS
VL: DIKMNQSPSSLSASLGDTITITCHASQNINVWLSWYQQKPGNIPKLLIYKASNLHTGVPSRFSGSGSGTGFTLTISSLQPEDIATYYCQQGQSYPLTFGAGTKLELK
notes: Phage-derived Fab: murine VL and VH fused to human CL and CH1
Regarding B1, the 50% effective concentration (EC50 (read off the curve)) in experiment [1] is approximately 6 nM; in experiment [2], approximately 2 nM. Moreover, the results for the EC50 in experiment [3] and in experiment [4] were less than 5 nM and 1 to 7 nM, respectively. The IC50 with His-tagged CD47 [5] was less than 2 nM; in [6], less than 10 nM; in the experiment with His-tagged CD47 [7], 2 to 2.7 nM. The results for the “IC50 (read off the curve)” value (in experiment [8]; in the experiment with His-tagged CD47 [9]; in the experiment with His-tagged CD47 [10]) were approximately 9 nM, approximately 2 nM and approximately 3 nM, respectively.

B2: ABU14 (Fab) (Fab, V domains shown)
VH: EVQLQQSGPELVKPGASVKISCKASGYSFTNYHIHWVKQRPGQGLEWIGWIYPGSGNTKYNEKFKGMAILTADTSSSTAYMQLSSLTSEDSAVYYCARYDYDLYLHSWGQGTTVTVSS
VL: B1 VL with K3Q, M4I, L106I
notes: as for B1
For the molecule B2, the “EC50 (read off the curve)” value in [1] is approximately 10 nM; in experiment [2], approximately 4 nM. Moreover, the EC50 is more than 7 nM in [11] and less than 5 nM in experiment [3]. Also, the IC50 is less than 2 nM in the experiment with His-tagged CD47 [5], 10 to 65 nM in experiment [12] and 2 to 2.7 nM with His-tagged CD47 [7]. Further, the “IC50 (read off the curve)” value in experiment [8] was approximately 20 nM; with His-tagged CD47 [9], approximately 2 nM; in the experiment with His-tagged CD47 [10], approximately 3 nM.
